The chains are these.
B1: 62 (protein)
chain: EFKRKQKVEINSLQTNKNNDNIREEKIKGDVESQPDVDGDTCVIFSSSEGNSRNCWCPRGYILCSEEDVLDVQGKLNEIKNKHERSLVTPLWMKRLCDNSNDVGFKSMSVVIDYELAVLCKDGSNKDYADFEIIGASGYITGEEMIEEQKRNPWYVPRKCTVNNFYLCRKVENDNVNCAYTPWSDWSACKNNAQKRYRKVRRSNQNNENFCLWNDKIVPRNIMEQTRSC
modifications: bait human Fc-tagged dimer
B2: 29 (protein)
chain: QNYWEHPYQNSDVYRPINEHREHPKEYEYPLHQEHTYQQEDSGEDENTLQHAYPIDHEGAEPAPQEQNLFSSIEIVERSNYMGNPWTEYMAKYDIEEVHGSGIRVDLGEDAEVAGTQYRLPSGKCPVFGKGIIIENSNTAFLTPVATGNQYLKDGGFAFPPTEPLMSPMTLDEMRHFYKDNKYVKNLDELTLCSRHAGNMIPDNDKNSNYKYPAVYDDKDKKCHILYIAAQENNGPRYCNKDESKRNSMFCFRPAKDISFQNYAYLSKNVVDNWEKVCPRKNLQNAKFGLWVDGNCEDIPHVNEFPAIDLFECNKLVFELSASDQPKQYEQHLTDYEKIKEGFKNKNAAMIKSAFLPTGAFKADRYKSHGKGYNWGNYNTETQKCEIFNVKPTCLINNAAYIATTALSHPIEVENNFPCSLYKDEIMKEIERESKRIKLNDNDDEGNKKIIAPRIFISDDKDSLKCPCDPEMVSNSACRFFVCKCVERRAEVTSNNEVVVKEEYKDEYADIPEHKPT
modifications: bait human Fc-tagged dimer
B3: 14 (protein)
chain: KNINLNDEGKKKQSGIINENEDGKNNKANNNKKVQHNKINRKGNNAVTKKTDEHKNDGDAENKKNGEHKNDGDGKNKKNGEHKNDGDGKNKKMDEHLYDIDGENKKNGEHLYDVDGENKKNGEHLYDIDGENKKNGEHLYDIDGENKKTDEHLYDVDGGKNNILEYNNIDQHNEFPESLENDNSYDKLFDDVELRDIIHNEKFFENLKNVNNNDVHNFLLVDKEMERRKEEEKKKSRKLEEDEEDDEDEEEDNDEKWKEENKNNAASSSSSSSNNFNKNYDIYDNRDLYNYDNLVDITQEEHINVPNINDEINEGRKHDKEDFLIFEKRLNEAEDRNDASDGDNKMEDLINNHFDDSGDNGAYENIQVKKELYNKNEKIIKGRDNNLNDGDIHMNKNNAANKLNNNNNNNNNDNNMNSEMKYKTFKEEYEEQILSKP
modifications: bait human Fc-tagged dimer
B4: 40 (protein)
chain: ISTHDTCDEWSEWSACTHGISTRKCLSDSSIKDETLVCTKCDKWGEWSECKDGRMHRKVLNCPFIKEEQECDVNNEMAEDTHMNNAYIYFNADDGDNEYEDHDDKNDDDKNYDNENDDDKNDDDKNDDDKNDDDKNDDDKNDDEENYNDAEEKVKNNDIHNSAANSNNEVTNFIQIKDKIMIKHKTTNIHPVNFIQEKYTRNNKYRSDNFAKILNNMNHINNNNYNSRSSSTSSKNARGYRGGSSNMYPHVPNYASSSVHNSANNERKSDEDLDNIEGDNIAKEERIVPINNKNYDNHDEHSNIHEHDTSRNVDNEKYNSNDDLPNLATYDYDMNNDAYKKNHMKKPMDSIKEEQTKQENNQNNEKVSSSEKQNDDISALYEHMNTKDQEHTQHEQPNDAAHGHFEDYSK
modifications: bait human Fc-tagged dimer
B5: 73 (protein)
chain: NNIKLNDKENINFESYFNKRTNEENVLNKNVAKEMGDTFVAHKAIELNINHHHVNNDKEFNNNNNNKHQPYYHNEHDKKFSESLKAHMDHLKILNNDLKQHIDKKERNEIYENNDLKKYIIKEIQNNKYLNKEKKSSEDIQILEEHSKKLQKEIHEWLESVNNIEEKSNILKNIKSQLLNNIASLNHALSEEIKNINDIKELQKQQNDLFSENWLYFLPSSSDYLLNEKKKNLYDNQDNSMKDDINNNDKYNIFNYLQNVQDKDNQYEVMKQDNNNIHSGSS
modifications: bait human Fc-tagged dimer
B6: 69 (protein)
chain: IYYCNDNILENANNDDSTKDINNINKNSANKAKSEKTSNYNNDQYNIDDAYNEDEENDEEEGDDDENDHFEVPINCAGGNCFDSMDDINKIIDNKKKKMKYRRRRGKAIQIIKPNVNHAELIIIEENLEIFKRIDKPIAIVSVLGDMHTGKSFLLNLLNEHVIPDINKANKYIENGFKVGNDITASTYGIWIWSEPIRINVKKLKKIYEYINENFANFIKSYEYEKDEYNEEIIDLLNLYKTDDWISNVEELNLADTDEVNLILMDTQGLNSPNVNKRYDEILYALTNLISTDIIFLTMKMINNKDLEFIENIAKDANLFMLRAYTRSSGSTFSIKKNNFHKILDTLNNNLENNALILESIASKNLMWVVHDFSQRLDVRKGKLWLDILLNSDRRDLDIKYWKKIISNKAKDKHDAYTTKKQKIAYLTYNENSASGLLPNNNNNNNNANDASSNYKLNILYKNIDCVLLRNMYHNKEFDFTKANINDLNEEYKNDVLLLRYKIYLRALLFPKKMYSDVQINNIINKIRKEQKLREEQEKNKDNKKNDANNQANDLNSNKDETSGSQVTNRFMSGHDVYDFITFLVKSANQNLFTNVNQFFKHFKINRAEISRNDLIFLYKKYLLQFMENEDVEFISNLNDENDDLFLQKEGNNAAVNHDENSDADSLFNDHDENMQLKEHNIKDGEDNTHQKKDSYKLPPLLNEIKKYEELIREQILNIWYKYTESDFHDEEEKELIKDIENNLYERLDQIKIEMLELGEMNIRKFCKIACEDALQIVVEDIKMKSDQYPIKQKDLTTFFESVSYNLIKYLEKKLSKNSDKLDLIYYKDNICSPLINNAFQEFYFLKKKNIALNENRLKSYFSNAVEKGKEVFEVLAENTENIAEYFKNKNMFYTVLDKWTSEAINTYTLTLSDFAKEEKEINDEYLNVLNNDIKLLKQKAMEKWHNHCRDKTSALYNMHKSNLKKNFLENFNFPLDELVLQDIFLNLKGQEELKYMDIYCANEDSWNSEYKNFLKLTDEIFQFIKDENLKAIQITCQQPLDELKNGIKGEIHKYYLWSSLKSTLYNRALIVLSSNIENIYIKNQRENKIQSNLDEKYNNKNKNYKRISKDLMSKVINRWLNNDIYNVYYP
modifications: bait human Fc-tagged dimer
B7: 31 (protein)
chain: EGYICDFSSEKYNIYFDEQKDDVICYHEIYEGDSIGIIIPRYKEGNENIYIKTNCFNEVSLESSGNNALSIYDIFNDDEITLYDQDSIFYTEYISSILHIKKVKKNTYLHCVFESKDVNGLTTHKGIAKITIKNVKHNENKKLINNDVDNNAALSFKKKLTNKLVIDLLNKIDIIKDDKLNNQYNNDDNKFLVEAKPGDILYLLGVKRKNKKYLYVDQDCPLHFERIGSIYKYIFPIINEKEEIYNCALYVDDDVSTNKKIVGNLKITFVSKNPAINDINIDVLKKYIHSDIEQKLYKLLYGEISNSVNKYAEQNVDINNADISAIQFMNLNSDNCNNNECIEFFNNAACSSYCGKGYRLLNGNNHMYDEQMVVPCYNGECKPEDEIEP
modifications: bait human Fc-tagged dimer
B8: 81 (protein)
chain: EFVKGSYESKGYPLIHLMNNNEYTGSANNFIKNNLINLLYIYKDVKFDEEKTLGIDSFLDIEDDTKIERLIKEKMLYINKYINSRQMIKYSGFIYLYEIIEKKNFYFLLHFLMTNNNNGLIIILPEDMYINVDEYYRINKINKLNDQNKKNKVVSQDLLEKRIMFVQSLILNMKLQQSIYFIKNNKDIEKIYENYQSKFAYFDLTRNVAISPISKIQNVYKMNSKSLYYFLNKNNNIHINTIFNKQQDNQAFLLTKQKTIIICADFNVFNIFSDLPSNTAFTNSNLITIQNLIKLFYDVYNKEQVNYNILFFFTNYYYGIQDFLNSINVIFKENIEFVICLDNLNNADFYIYESNKAQPQNVQAFYRILNNIVKGSIKKNVQMVNEKIKIHSKHLPSLHEYFVLNKINSFSLSSSKKNNNMIFLNKFPMLQPKLNIQNVKNNIAIIFKSLYLYMTQKKTDQKENTQQEQSIEKNEKEKSMLTYINKNMASNDDMNTIDYNLNKYNKFFIYKEDTLKLFNYFKTIINSNIADTNFLIKDYKLTTDKKQKFFYQKYAHVTFSMAISYVFH
modifications: bait human Fc-tagged dimer
B9: 60 (protein)
chain: GIITGKLNYFGTFSLKIFAKTYFQYKINTYSNLYSYCGISQEYNKAKSTCESCPIGTFWNSEKLLCENCQKYIENTATLKNGAKLKTDCLCSPGYEYSDKSSKCEKCKPGYYKKSVGNFICIKGCPINEKSITYGAKSYAEMDCKCIEGYYRKEDKCVLCLSNYYCPGNELIKPCDKNKISKEGVIHKNDCICKENYIKDNKNNNCVYCASIAKILGKPIYCSLCDPIYFHEDIYKNIFLLPNNIHNYGLINNIYNYDEDLSLQGNIMKYAYFHKTTNIERNFAHYINIKNIYHTFNNNINNYDYLTNSKFAIEIDIPEPKKCIFCDSGYYIKKKKCISCTTKYCEGFNHNPKACPKNSVVNKMKASSIFDCSCKRGYGILNERRNAYSNTITCQICPQNFFKHIISDDSCFPCPLYTYTLNQGATSILQCLPKKGYFIYMFKSINIDYLRYKFDINTENRIYNYFENNNKIFDEDVYNFFLNKQYSKFFYNTENK
modifications: bait human Fc-tagged dimer
B10: 64 (protein)
chain: RMNVVSHNSMKKVGEEGKDEKIISCVVEYVIKGDLSIDDGDFCDSNSICSNNPGLCDNGQVVVPGDYCSNYYDITLVVEESSFVQKDYWLKGTIPFLESMVFNSNVAKDKAHMSVVLFAGKQRVVVPFTDESSQDKNMLLEKINSIDEGIATSSDTLYVNALKYAIENVIFGDGTRKDAPKVAVLFYYGFDYGANKNMIPDVVQTYKEQNVKLIIVGIALGIRDNAYLLADCSIGDENCVNVVFKPWDFVIPAAADVNQKICDKNKA
modifications: bait human Fc-tagged dimer
B11: 48 (protein)
chain: GCIKLKTSYKHEPILLLKNDERIISLNKIIPYLTEEVFISKDNIMTKINVENNICIELIKKHEILNTPIEHFFHFTNREYTIDLRNNDNIYNYAKRILNNKLDFELCNKILSFTIPINYNICSFPSYHNYFLYINYLKDVKIELIISALEKAKFLFLKIPNTFNLNTAHANFNDNDYIIEKGILENDLIKIDISKIIHRYICKKYYLYKSDEQINDDDLRQINNNNANNDISDKEIKMVLMTSHTLSDIIIFPSIIQNVQALKHYKNIKNVVKLKKKIKKRYTEWENWAPCYNVCNNNFAYKCRYYKCTTENQEFCDQNFHMNFAECPFTPCEDAIKKENEKKEIEKDKNKAIIINHENNRDQEGPIDDETMLRYRKNKKISFFMWIINNKK
modifications: bait human Fc-tagged dimer

This experiment concerns the target FGFR4 ectodomain (Homo sapiens, UniProt P22455). The experiment in a line: AVEXIS normalised luminescence.
Molecule B1 registered a binding score of 1.47.

The molecule B2 had a binding score of 1.43.

With B3, the binding score is 0.821.

The molecule B4 displayed a binding score of 1.75.

B5: the binding score amounted to 198.

The molecule B6 registered a binding score of 0.719.

Molecule B7 gave a binding score of 1.28.

In turn, B8 had a binding score of 0.817.

B9 yielded a binding score of 0.959.

In the case of B10, the binding score is 0.876.

Consider B11, for which the binding score was determined as 0.752.

Values taken from article PMC11098746 (2024).
